Source: IntAct's records for PubMed 19366670

Molecular target: T1, asia_bpt4 asiA (UniProt P32267)
T1 sequence: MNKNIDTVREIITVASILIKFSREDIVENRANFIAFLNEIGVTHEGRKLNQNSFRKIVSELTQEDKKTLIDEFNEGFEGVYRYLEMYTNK

DNA-directed RNA polymerase subunit beta (Escherichia coli (strain K12)) (from UniProt P0A8V2) G907K
effect of a mutation on the interaction: decreasing interaction strength

DNA-directed RNA polymerase subunit beta (Escherichia coli (strain K12)) (from UniProt P0A8V2) I905A;F906A
effect of a mutation on the interaction: decreasing interaction strength
